Test results from the supplement of paper PMC9170038.
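Also: bound reporter read as fluorescence of individual clusters on recovered sequencing chips by microscopy, with normalized cluster intensities fitted with a binding model.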

Each sequence was assayed on K4 kissing-loop RNA reporter (assay: apparent KD of K4 kissing-loop reporter; higher = weaker reporter binding). Settings: Eterna round: R107; input ligand: FMN 200 uM.
Procedure: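 RNA-MaP round R107: designed RNA switches with theophylline, tryptophan, arginine or FMN aptamers are transcribed on-chip within common flanks. They are titrated with a labelled K4 kissing-loop RNA reporter in RNA-MaP buffer (100 mM Tris pH 7.5, 80 mM KCl, 4 mM MgCl2), without ligand or with the indicated ligand. Median apparent KD per design.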
With “CGCCGAAAGGCGAGCGCUCCCACUCCGGAAGGAGCGCCCGAAAGGGCAGGUAGGUCGCCGGAGUGAUGUUCCGGUGGAGGGCUCG [#2 Exclusion - Arginine A Attempt #30 (Inspired by Omei)]” the “apparent KD of K4 kissing-loop reporter” value was 177 nM. “AAACAUUGGUCUGAUACCAGCUGAUCGGAAACGAUCUUGCUGGAGUGAUGUUCCAGGAAAAGCCCUUGGCAGCAGACCGAUGAAA [MAT - Same State Theophlline B - Mod of Eli - D24]” was tested, and the “apparent KD of K4 kissing-loop reporter” value was 938 nM. With “GGCUUACUAGUGAUGUUAGUAUUUUCUGAAGGAGCGCGUGAAAACGCAGGUAGGUCGCAGAACCUUGCCAACUAUUUUAGUUGCC [Ex Arginine A K4 28]” the “apparent KD of K4 kissing-loop reporter” value was 144 nM. With “AAAAUAAUCCAGUGAUGUUGGUAUACAGAUACCAGCGACGAAAGUCGCCCUUGGCAGCUGUGGACGUACAAAAUAAGUACGUCCU” the “apparent KD of K4 kissing-loop reporter” value was 934 nM. With “GUAGACGUGCCUUCAGUGAUGUUGAAGGAUACCAGAUGUUACCACAUCCCUUGGCAGCCUUGGGAUAACAGUGAGUCGGUAUAUG [Ontierso]” the “apparent KD of K4 kissing-loop reporter” value was 255 nM. “UCUGUGUCCGCGGCCGCCACUCGGGACUAAGUGAUGUUUAGUCCUUCAGAAUAAAGAAGUGAUGAGAGGACCGGGCGAUCGCACC [theeternabot_sameState_KL_Trp_B_2]” was tested, and the “apparent KD of K4 kissing-loop reporter” value was 100 nM. For “GGGAGUGAUGUUCCCGCGUUGACGGUCCUCCGAGGACCGGUACGGCCGCCACUCGAAACCCAGUGAUGUUGGGACUCACCGUACU [Exclusion Tryptophan A GF 11]”, the “apparent KD of K4 kissing-loop reporter” value was 511 nM. With “CUAGGUAACACAGGAUAUGUCCGAGUGAUGUUCGAGCCUUUCCAUUGACGAAAUUAAUGGUGGGUGACAGAAGGGUGAGUACUGA [Uses]” the “apparent KD of K4 kissing-loop reporter” value was 457 nM. For “CCAUCGCUAUUCGAUACCAGUCAUAAAAUCUUUGGUUAAAUAAAGGAGUGAUGUUCCCAAGACCCUUGGCAGCGAAUAGUGAUGG [Theophylline B K4 7]”, the “apparent KD of K4 kissing-loop reporter” value was 229 nM. In the case of “AACUGUCAAGGACAACAUUACUGCAGUGAUACCAGCAUCGAAAGAUGCCCUUGGCAGCACCAACUUGCAGUGAUGUUGCAAGUAA [BrourdMod 5 - Jieux - Exclusion - Theophylline A]”, the “apparent KD of K4 kissing-loop reporter” value is reported as 241 nM. “GGAUAGGACAGAGGAUAUCCUUGAGGCAAGAAACUUGUCUCUAAAGGAUGAAUCCUAGUGAUGUUAGGAGAAGGCUGUCCUAUCG [FmnBX 14 - #SwitchBubble #StaticStem #Palindromic]” was tested, and the “apparent KD of K4 kissing-loop reporter” value was 103 nM. “UUUCCAGUGAUGUUGGAGAAAACCGAGGAAGGAGCGGACUCUUGUCCAGGUAGGUCGCCUCGUCUCCCAUUGGCAGAGCGGACCC [Enlaonbian]” was tested, and the “apparent KD of K4 kissing-loop reporter” value was 232 nM. With “UAUAGAAACGUCCUAUCAGUAAAAUGGGAAGGAGCGAGGAAGGACUCAGGUAGGUCGCCCAAUAACCUUAGUGAUGUUAAGGAAA [Version 2]” the “apparent KD of K4 kissing-loop reporter” value was 155 nM. With “AGGAUCCGUCGACAAAAGUCGACAAUAACCAAGGAUAUGACGAAAGUCAGAAGGUGGUCUUAUGACCAGUGAUGUUGGUGGAUCC [FmnA 15 #SwitchBubble #K4Late]” the “apparent KD of K4 kissing-loop reporter” value was 891 nM. For “GCCUACGUAGCAGGAUAUAGGUAAGUGAGUGAUGUUCAAGAGUUCUGGAGUGAUGUUCCAAUCUGACUAGAAGGGCUACGUAGGC”, the “apparent KD of K4 kissing-loop reporter” value was 58.4 nM. “GAGAGCCCUGUAGGAUAUGAGUCUAGUGAUGUUAGGCGGUCCAUGCGCGUGGCGCGUUAUGCCCUUUUAGAAGGACAGGGCUCUC [#2 Exclusion - FMN B Attempt #20 (HarryS)]” was tested, and the “apparent KD of K4 kissing-loop reporter” value was 105 nM.

Same assay, conditions: Eterna round: R107; input ligand: arginine 13.2 mM
With “AGGCACGAGCAAGGAUAUCGAGUAGAGUGAUGUUCUGCCUGGGUUGGCCCGUAAGGGCCUUCCCAGCGAGAAGGUGCUCGUGCCU [#2 Same State - FMN A Attempt #10 (HarryS)]” the “apparent KD of K4 kissing-loop reporter” value was 505 nM. For “AAUAAGGUCGCCGAUACCAGCGCGGGCAGAGCAAAGCUCUGCCCGGUAGUGAUGUUACCGCGCCCUUGGCAGCGGUGGCACGACC [Omei KL Theo B SS C v6]”, the “apparent KD of K4 kissing-loop reporter” value was 58.3 nM. In the case of “UGUACCGAGUCAGGAUAUGGCGUCGAAAGACGAAUCCUAGUGAUGUUAGCGAUCUGCGAAAGCAGUCCAGAAGGGACUUGGUACU [FmnBS 26 C50]”, the “apparent KD of K4 kissing-loop reporter” value is reported as 338 nM. For “CCGGCCCGGCCGGAUACCAGUGCGCCGCAGGGAACGGCGGGCCCAGAGUGAUGUUCGGGACACCCUUGGCAGCCGCCUGGGUCGC [#2 Same State - Theophylline B Attempt #27 (HarryS)]”, the “apparent KD of K4 kissing-loop reporter” value was 123 nM. With “AUUAAUAUCACGGCCGCCACUGAAUAUUGUUUUUAUAUUUAGAAUAAUUGCCAGUGAUGUUGGAUCAGGACCGGGUGAGUUUAUA [JR_SSTryptoB_Sub007]” the “apparent KD of K4 kissing-loop reporter” value was 362 nM. For “AAUGAUGAUUGACACAUUUACUAAAAGGAAGGAGCGGCGAUGUGGCCAGGUAGGUCGCCUUUUAGCAGUGAUGUUGCUAUAUGUU [JR_Nu_ExcArginiA_Sub026]”, the “apparent KD of K4 kissing-loop reporter” value was 108 nM. For “AGUGAUGUUGUGUGAUGUUAGUGAAGUGAUCGAGGACCGGUACGGCCGCCACUCGAGUGAUGAGUGAGUGAUGUUUGUUUAGUGG [#17 K4 Tryptophan A Same State]”, the “apparent KD of K4 kissing-loop reporter” value was 124 nM. With “AUGAGGAGCAGUGAUCCUACUCCAUGGGAAGGAGCGUAGGAUACUACAGGUAGGUCGCCCAGUGAUGUUGGGCGCGUGCUCUUGG [Isatquesra]” the “apparent KD of K4 kissing-loop reporter” value was 130 nM. In the case of “GAUAGUUAGAGAGAUACCAGCGAUACCUAGAUGGAAAGUGAUGUUCGCCAUCAAUUGCACCGCCCUUGGCAGCUCUCUCUUUGCU [theeternabot_exclusion_KL_Theo_B_37]”, the “apparent KD of K4 kissing-loop reporter” value is reported as 763 nM. For “UGUACCGAGUCAGGAUAUGUCGUCGAAAGACGAAAUGGAGUGAUGUUCCUUAAACUGCGAAAGCAGACAGAAGGGACUUGGUACU [FmnBS 29 #SwitchBubble #StaticStem #DoubleMagnetSystem]”, the “apparent KD of K4 kissing-loop reporter” value was 278 nM.
